This is an account of results in patent publication US20240100159A1, “USE OF IL-7R-ALPHA-GAMMA AGONIST PEPTIDES IN CELL MANUFACTURING” (MEDIKINE, INC., priority 2022, published 2024).

To fix the notation:
T1: hu-IL-7Rγc subunit (human, UniProt P31785 23-262, limits assumed)
T1 construct: also called human Rγc subunit; common γc receptor
T1 sequence (looked up): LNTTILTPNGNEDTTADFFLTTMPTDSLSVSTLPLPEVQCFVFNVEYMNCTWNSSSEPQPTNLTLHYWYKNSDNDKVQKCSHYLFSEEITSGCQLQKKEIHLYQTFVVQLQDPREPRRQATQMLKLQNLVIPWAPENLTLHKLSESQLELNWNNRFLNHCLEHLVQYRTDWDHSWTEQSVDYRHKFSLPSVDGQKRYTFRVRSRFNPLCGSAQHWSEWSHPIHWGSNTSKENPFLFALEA

T2: hu-IL-7Rα subunit (human, UniProt P16871 21-239, limits assumed)
T2 construct: also called human interleukin-7 receptor subunit α; CD127
T2 sequence (looked up): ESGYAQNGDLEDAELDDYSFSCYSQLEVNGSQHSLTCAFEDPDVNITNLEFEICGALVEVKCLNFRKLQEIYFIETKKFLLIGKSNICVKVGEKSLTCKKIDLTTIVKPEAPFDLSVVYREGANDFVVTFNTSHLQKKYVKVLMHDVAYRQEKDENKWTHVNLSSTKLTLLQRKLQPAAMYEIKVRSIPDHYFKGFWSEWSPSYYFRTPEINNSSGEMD

T3: hu-IL-7Rγc subunit (human), P31785
T3 chain: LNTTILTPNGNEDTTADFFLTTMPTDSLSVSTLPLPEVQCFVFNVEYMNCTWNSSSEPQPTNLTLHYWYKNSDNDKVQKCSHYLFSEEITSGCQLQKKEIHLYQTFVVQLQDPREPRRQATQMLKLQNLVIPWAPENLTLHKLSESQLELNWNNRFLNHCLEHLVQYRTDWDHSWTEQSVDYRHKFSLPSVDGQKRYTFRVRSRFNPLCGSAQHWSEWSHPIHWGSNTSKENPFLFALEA

T4: IL-7Rγc subunit (Homo sapiens, UniProt P31785)
T4 sequence (P31785 23-369): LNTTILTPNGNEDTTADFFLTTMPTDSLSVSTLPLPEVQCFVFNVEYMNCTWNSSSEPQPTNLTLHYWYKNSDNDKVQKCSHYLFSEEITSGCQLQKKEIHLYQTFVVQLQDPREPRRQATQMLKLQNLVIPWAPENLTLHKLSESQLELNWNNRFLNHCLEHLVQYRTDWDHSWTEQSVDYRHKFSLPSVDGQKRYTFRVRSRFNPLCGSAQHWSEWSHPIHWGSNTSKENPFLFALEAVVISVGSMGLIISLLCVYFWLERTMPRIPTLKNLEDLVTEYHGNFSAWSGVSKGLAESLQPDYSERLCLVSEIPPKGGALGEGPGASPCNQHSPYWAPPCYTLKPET

T5: hu-IL-7Rα subunit (human), P16871
T5 chain: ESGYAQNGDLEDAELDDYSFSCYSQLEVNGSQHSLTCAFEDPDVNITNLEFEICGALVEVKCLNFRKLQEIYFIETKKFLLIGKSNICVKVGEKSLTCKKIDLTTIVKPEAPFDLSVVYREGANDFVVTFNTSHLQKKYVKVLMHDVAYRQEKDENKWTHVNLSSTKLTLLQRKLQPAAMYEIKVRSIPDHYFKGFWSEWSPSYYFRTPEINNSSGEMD

T6: IL-7Rα subunit (Homo sapiens, UniProt P16871)
T6 sequence (P16871 21-459): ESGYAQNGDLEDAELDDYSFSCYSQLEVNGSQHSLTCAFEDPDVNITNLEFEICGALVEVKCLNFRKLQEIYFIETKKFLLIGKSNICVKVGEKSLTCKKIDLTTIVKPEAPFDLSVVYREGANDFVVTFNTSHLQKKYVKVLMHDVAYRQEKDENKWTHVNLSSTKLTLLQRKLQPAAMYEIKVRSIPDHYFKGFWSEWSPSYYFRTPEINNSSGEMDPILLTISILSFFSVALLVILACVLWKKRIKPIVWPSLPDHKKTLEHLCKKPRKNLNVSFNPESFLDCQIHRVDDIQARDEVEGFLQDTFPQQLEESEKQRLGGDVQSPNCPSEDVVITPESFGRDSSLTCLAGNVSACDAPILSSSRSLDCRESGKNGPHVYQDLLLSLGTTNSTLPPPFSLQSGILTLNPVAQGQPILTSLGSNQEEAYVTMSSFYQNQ

Bridge positions count the residues as written; N and C are the ends. Ends that are not written are not given here.

The first assay has as its target T1, hu-IL-7Rγc subunit. Nature of the assay: not stated; binding to the specific binding site on the IL-7Rγc subunit.
Settings: not given
The IC50 is the concentration needed to halve the response being measured. Read a low IC50 as higher potency. Consider CPSMLQGPERTWVC (also called Rγc ligand) [SEQ ID NO 464], for which the IC50 was < 10 µM. The same measure, in the same setting: the value for RTCTEWENVVLCWV (also called Rγc ligand) [SEQ ID NO 462] was < 10 µM; that for MCWLEWGEWVGSCL (also called Rγc ligand) [SEQ ID NO 463] was < 10 µM.

A further assay concerns the target T1, hu-IL-7Rγc subunit.
Test: not given
Settings: not given
For KPVVVCEEWQGVELCWLEIQ (not fully specified (bridges); cysteine pairing not given here, also called Rγc ligand) [SEQ ID NO 301], the IC50 was < 100 µM. With VVCEVFQGVELCWCENEEFT (not fully specified (bridges); cysteine pairing not given here, also called Rγc ligand) [SEQ ID NO 302], the IC50 is < 100 µM. On the same count and under the same terms, the same measure for KKIVVCQDWGGVELCWTEDD (not fully specified (bridges); cysteine pairing not given here, also called Rγc ligand) [SEQ ID NO 317]: < 100 µM.

For VTCQEYEGVELCWTVGCAYS (not fully specified (bridges); cysteine pairing not given here, also called Rγc ligand) [SEQ ID NO 307], the IC50 is < 100 µM.

A further assay addresses T2, hu-IL-7Rα subunit. Kind of assay: not stated; binding to a unique binding site on the IL-7Rα subunit.
Settings: not given
On to QCIHWDIETLLSCV (also called IL-7Rα ligand) [SEQ ID NO 455], for which the IC50 is < 10 µM. The same measure, in the same setting: the same measure for QCVHWDLDTLFGCIREQLEL (also called IL-7Rα ligand) [SEQ ID NO 458]: < 10 µM; for GGVPWCTLDPGSLQCAWF (not fully specified (bridges); cysteine pairing not given here, also called IL-7Rα ligand) [SEQ ID NO 459]: < 10 µM.

For the next assay, the target named is T3, hu-IL-7Rγc subunit (human), P31785. Kind of assay: not stated; binding to the specific binding site on the IL-7Rγc subunit.
Settings: not given
Consider KVCEMWGGVLLCWN (modifications not checked) [SEQ ID NO 461], for which the IC50 was < 10 µM.

A further assay deals with T2, hu-IL-7Rα subunit. Kind of assay: phage ELISA competition assay.
Settings: not given
QCVHWDLDTLFGCIREQLEL (also called IL-7Rα ligand) [SEQ ID NO 109]: the IC50 is < 10 µM. On the same count and under the same terms, the value for NPFRSVVPWCALDPGSLQCAWL (also called IL-7Rα ligand) [SEQ ID NO 106] was < 10 µM; that for VHRIPWCTLDPGGLQCAWLRQM (also called IL-7Rα ligand) [SEQ ID NO 114] was < 10 µM; that for SAKVLKQCLHWDLESLLSCL (also called IL-7Rα ligand) [SEQ ID NO 111] was < 10 µM.

Consider YRSGHGIPWCMLDPGGLQCSWL (also called IL-7Rα ligand) [SEQ ID NO 117], for which the IC50 is < 10 µM. On the same count and under the same terms, the value for VPWCMLDPGSMQCAWL (also called IL-7Rα ligand) [SEQ ID NO 113] was < 10 µM; that for KAGSWFIPWCTLDPGSLQCAFL (also called IL-7Rα ligand) [SEQ ID NO 105] was < 10 µM. Same read-out and setting: the value for RHFDDIIPWCTLDPGSLQCAYL (also called IL-7Rα ligand) [SEQ ID NO 110] was < 10 µM. Same read-out and setting: the same measure for IRSCLWQPGALHCTWWAEEEPV (also called IL-7Rα ligand) [SEQ ID NO 103]: < 10 µM; for QCIHWDLESLLNCLRELKEP (also called IL-7Rα ligand) [SEQ ID NO 108]: < 10 µM; for IPWCLLDPGGLQCVWL (also called IL-7Rα ligand) [SEQ ID NO 104]: < 10 µM. As for GWGIPWCTLDPGSLQCAWLGKH (also called IL-7Rα ligand) [SEQ ID NO 116], the IC50 is < 10 µM. Same read-out and setting: the value for HCLHWNIETLMSCVYGNFEE (also called IL-7Rα ligand) [SEQ ID NO 100] was < 10 µM; that for HLGVPWCTLDPGSIQCAWLAKH (also called IL-7Rα ligand) [SEQ ID NO 102] was < 10 µM; that for QCIHWDIETLLSCV (also called IL-7Rα ligand) [SEQ ID NO 107] was < 10 µM. On the same count and under the same terms, the value for HCKHWDLESLLLCV (also called IL-7Rα ligand) [SEQ ID NO 101] was < 10 µM; that for WVTIPWCILDPGSLQCEWQTKV (also called IL-7Rα ligand) [SEQ ID NO 115] was < 10 µM.

The next assay has as its target T1, hu-IL-7Rγc subunit. Kind of assay: phage ELISA competition assay.
Settings: not given
On the technique in general: In an ELISA, binding on a coated surface is turned into a signal by an enzyme label.
As to GGVVCQDWEGVELCWQGG (disulfide 5-14 (inferred), also called Rγc ligand) [SEQ ID NO 327], the IC50 was < 100 µM.

A further assay concerns the target T4, IL-7Rγc subunit. Kind of assay: Competitive binding assays, specific binding site on the IL-7Rγc subunit. To be noted: against Rγc ligands SEQ ID NO: 461-465. The text has this:
The specific binding site of the IL-7Rγc subunit for these Rγc ligands can be characterized using competitive binding assays.
Take “SEQ ID NO: 460: An IL-7Rα ligand having the amino acid sequence of SEQ ID NO: 460; sequence not printed in the text (YDCRIAQVGELCDL)”: the “competition for binding to the specific binding site on the IL-7Rγc subunit with the group of Rγc ligands” value is “does not compete”.

The target in another assay is T5, hu-IL-7Rα subunit (human), P16871. Nature of the assay: not stated; binding to a unique binding site on the IL-7Rα subunit.
Settings: not given
VYCAEIGEYRVCRQ (modifications not checked) [SEQ ID NO 456]: the IC50 was < 10 µM.

For the molecule YMACSSGLSLCRLS (modifications not checked) [SEQ ID NO 457], the IC50 is < 10 µM.

A further assay has as its target T3, hu-IL-7Rγc subunit (human), P31785.
Test: not given
Settings: not given
As to VVCQDWEGVELCWQ (modifications not checked) [SEQ ID NO 261], the IC50 was < 100 µM.

For another assay the target is unchanged. Nature of the assay: phage ELISA competition assay.
Settings: not given
Regarding VVCQDWEGVELCWQGG (modifications not checked) [SEQ ID NO 325], the IC50 was < 100 µM.

As to GGVVCQDWEGVELCWQ (modifications not checked) [SEQ ID NO 326], the half-maximal inhibitory concentration (IC50) was < 100 µM. VVCQDWEGVELCWQ (modifications not checked) [SEQ ID NO 261]: the IC50 is < 100 µM.

In another assay the target is T6, IL-7Rα subunit. Nature of the assay: Competitive binding assays, unique binding site on the IL-7Rα subunit. The conditions noted are these: against IL-7Rα ligands SEQ ID NO: 455-459. The text has this:
The unique binding site of the IL-7Rα subunit for these IL-7Rα ligands can be characterized using competitive binding assays as described, for example, in Example 12.
For “V V C Q D W E G V E L C W Q (VVCQDWEGVELCWQ) [SEQ ID NO: 261]”, the “competition for binding to the unique binding site on the IL-7Rα subunit with the group of IL-7Rα ligands” value was “does not compete”.
